Data set [1] is classed as physicochemical. The settings on record: pH 8. As for the experimental part: For example, 200 mM potassium phosphate buffer (pH 8.0) is used for a treatment at 45° C. for 10 minutes to determine the remaining activities of the oxidases of the invention. The oxidases of the invention having high stability at a high temperature range are particularly preferable for industrial use. The oxidases of the invention may, for example, have a remaining activity of 50% or higher, preferably 70% or higher, and more preferably 80% or higher under the above-described conditions. For example, 200 mM potassium phosphate buffer (pH 8.0) is used for a treatment at 45° C. for 10 minutes. Then, the remaining activities of the enzymes of the invention are determined. The oxidases of the invention having high stability at a high temperature range are particularly preferable for industrial use. The oxidases of the invention that have less action on ε-fructosyl lysine may, for example, have a remaining activity of 50% or higher, preferably 70% or higher, more preferably 80% or higher under the above-described conditions. […] Next, the physiochemical properties of these oxidases were determined. […] Each crude enzyme sample was heat-treated at 45° C. for 10 minutes, and then its activity for fructosyl valyl histidine was determined and compared to the activity before treatment. […]

The format of data set [2] is physicochemical. To be noted: for pH of maximum remaining activity: 10 min; for stable pH range: purified oxidase, 30° C. for 10 minutes, remaining activities of 70% (Eupenicillium 60%) or higher. As for the experimental part: For example, 200 mM acetic acid buffer (pH 3.0-6.0), 200 mM MES-NaOH (pH 6.0-7.0), 200 mM Tris buffer (pH 6.8-9.0), 200 mM potassium phosphate buffer (pH 6.5-8.0) and 200 mM glycine buffer (pH 8.0-12.0) are used as buffers to perform enzyme reactions at the indicated pH at 30° C. for 10 minutes, thereby determining the remaining activities of the oxidases of the invention. For example, the oxidases of the invention may have a stable pH at 5.0-10.0, preferably at 6.0-9.0. For example, 200 mM acetic acid buffer (pH 3.0-6.0), 200 mM MES-NaOH (pH 6.0-7.0), 200 mM Tris buffer (pH 6.8-9.0), 200 mM potassium phosphate buffer (pH 6.5-8.0) and 200 mM glycine buffer (pH 8.0-12.0) are used as buffers to perform enzyme reactions at the indicated pH at 30° C. for 10 minutes, thereby determining the remaining activities of the oxidases of the invention. For example, the oxidases of the invention that have less action on ε-fructosyl lysine may have a stable pH range at 5.0-10.0, preferably at 6.0-9.0. The inventive oxidase was treated with 200 mM acetic acid buffer (pH 3.0-6.0), 200 mM MES-NaOH (pH 6.0-7.0), 200 mM Tris buffer (pH 6.8-9.0), 200 mM potassium phosphate buffer (pH 6.5-8.0) or 200 mM glycine buffer (pH 8.0-12.0) at the indicated pH values at 30° C. for 10 minutes, and its remaining activity was determined. […] The inventive oxidase was treated with 200 mM acetic acid buffer (pH 3.0-6.0), 200 mM MES-NaOH (pH 6.0-7.0), 200 mM Tris buffer (pH 7.0-8.5), 200 mM potassium phosphate buffer (pH 6.0-8.0) or 200 mM glycine buffer (pH 8.0-12.0) at the indicated pH values at 30° C. for 10 minutes, and the remaining activity thereof was monitored.

A short description of data set [3]: Km value for fructosyl valyl histidine (Lineweaver-Burk plot). The class given is biochemical. To be noted: purified oxidase. On the procedure:
In the above-described activity assay, the activity of the oxidase was monitored using different concentrations of fructosyl valyl histidine (substrate), and Michaelis constant (Km) was determined from a Lineweaver-Burk plot.
In the above-described activity assay, activity was monitored using different concentrations of fructosyl valyl histidine (substrate), and Michaelis constant (Km) was determined from a Lineweaver-Burk plot.

B1: Eupenicillium terrenum ATCC 18547: fructosyl peptide oxidase produced by Eupenicillium terrenum ATCC 18547 with less action on ε-fructosyl lysine; amino acid sequence SEQ ID NO: 3 (protein, listed as Eupenicillium terrenum)
chain: MAHSRASTKVVVVGGGGTIGSSTALHLIRSGYTPSNITVLDVYKTPSLQSAGHDLNKIMGIRLRNGPDLQLSLESLDMWQNDELFKPFFHQVGMIDCSSSKEGIENLRRKYQTLLDAGIGLEKTNVWLESEDEILAKAPNFTREQVKGWKGLFCTDGGWLAAAKAINAIGIFLQDKGVKFGFGGAGTFQQPLFAADGKTCIGLETTDGTKYFADKVVLAAGAWSPTLVDLEDQCVSKAWVFAHIQLTPKEADAYKNVPVVYDGEYGFFFEPNEYGVIKVCDEFPGFSRFKLHQPYGAASPKMISVPRSHAKHPTDTYPDASEVTIRKAIARFLPEFKDKELFNRTMCWCTDTADANLLICEHPKWKNFILATGDSGHSFKLLPNIGKHVVELLEGSLSQEMAGAWRWRPGGDALRSRRGAPAKDLAEMPGWKHDAHL
As to B1, the “remaining activity following heat treatment at 45° C. for 10 minutes” value in data set [1] is “approximately 100%”. In data set [2], the “pH of maximum remaining activity” value is 8.0 pH and the “stable pH range” value is listed as 6.0-9.0 pH. The Km in data set [3] was determined as 4.25 mM.

B2: Coniochaeta sp. NISL 9330: fructosyl peptide oxidase produced by Coniochaeta sp. NISL 9330 (FERM BP-7798) with less action on ε-fructosyl lysine; amino acid sequence SEQ ID NO: 1 (protein, listed as Coniochaeta sp.)
chain: MTSNRADTRVIVVGGGGTIGSSTALHLVRSGYAPANITVLDTFEIPSAQSAGHDLNKIMGIRLRNKVDLQMSLEARQMWKEDELFQPFFHNTGRMDCEHTPEGIEDLKKQYQALHDAGAGLEKTHAWLDNEDEILSKMPLLQRDQIQGWKAIWSQDGGWLAAAKAINAIGQFLKERGVKFGFGGAGSFKQPLFDDEGTTCIGVETADGTKYYADKVVLAAGAWSPTLVDLEDQCCSKAWVYAHIQLTPEEAAEYKGVPVVYNGEFGFFFEPNEFGVIKVCDEFPGFSRFKEHQPYGAPSPKHISVPRSHAKHPTDTYPDASEVSIKKAIATFLPRFQDKELFNRALCWCTDTADAALLMCEHPKWKNFILATGDSGHSFKILPNVGKHVVELIEGRLPEEMAYQWRWRPGGDALKSRRAAPPKDLADMPGWKHDPKL
For B2, in data set [2], the “pH of maximum remaining activity” value was about 7.0 pH and the “stable pH range” value was 5.0-9.0 pH.

A word on the Km: it is the concentration of substrate that gives half-maximal velocity.

The record behind these values is patent US7419813B2, “Fructosyl peptide oxidase” (Kikkoman Corporation, priority 2001, dated 2008).
